T1: cMSLN-His-Avi (cynomolgus, single biotin on the Avi tag in the biotinylated form)
T1 construct: Monomeric; also called cyno MSLN-His-Avi; cMSLN-Avi-His
T1 chain: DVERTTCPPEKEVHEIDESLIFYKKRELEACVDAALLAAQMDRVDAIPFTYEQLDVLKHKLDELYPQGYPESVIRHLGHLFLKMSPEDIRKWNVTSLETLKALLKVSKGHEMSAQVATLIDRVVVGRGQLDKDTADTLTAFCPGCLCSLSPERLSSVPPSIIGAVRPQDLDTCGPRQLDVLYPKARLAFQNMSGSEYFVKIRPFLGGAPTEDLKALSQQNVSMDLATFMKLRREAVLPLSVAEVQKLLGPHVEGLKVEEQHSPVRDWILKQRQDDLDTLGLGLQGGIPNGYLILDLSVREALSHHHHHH


What was measured:
[1] = target: T2, hMSLN-His-Avi (human, UniProt Q13421 296-598, single biotin on the Avi tag in the biotinylated form); experiment: ratio of SPR KDs
T2 construct: Monomeric; also called human MSLN-His-Avi; hMSLN-Avi-His
Method: (§1) 7.1 Binding of CD137/MSLN mAb2 to Human MSLN Under Avid Conditions—Antigen Capture Method Binding of all mAb^2 to MSLN immobilised on a BIAcore chip was tested to determine the binding affinity to human MSLN under avid conditions, where a high concentration of immobilised antigen is available to allow the antibody to bind avidly. […] The association time was 5 min and the dissociation time was 10 min. Running buffer was HBS-EP (GE Healthcare BR100188). Flow cells were regenerated by injecting Glycine-HCl pH1.5 at a flow rate of 30 μl/min for 30 seconds. Data were analysed by double referencing against a flow cell which was intentionally left blank (no antigen coating). The binding kinetics were fitted with a 1:1 Langmuir model to generate binding association (k_a) and dissociation (k_d) rates. Equilibrium binding constants (K_D) were calculated by dividing the dissociation rate by the association rate for each sample. Data analysis was performed with BiaEvaluation software version 3.2.
(§2) The association time was 5 min and the dissociation time was 5 min. Running buffer was HBS-EP (GE Healthcare BR100188). Flow cells were regenerated by injecting Glycine-HCl pH2.1 at a flow rate of 30 μl/min for 15 seconds. The data was analysed as described in Example 7.1.

[2] = target: human CD137 on primary human CD8+ T cells (human, UniProt Q07011 24-255); experiment: cell-based or functional assay
[3] = target: T3, endogenous cell surface human MSLN (human, UniProt Q13421 296-598); experiment: flow cytometry, NCI-H226 cells
T3 construct: whole, on cells; The cell line is named under assay; also called cell-surface MSLN on NCI-H226, OVCAR-3 and AsPC-1 cells
Method: (§3) To confirm binding to cell surface MSLN, mAb² listed in Table 9 were analysed for binding to endogenous cell surface MSLN on the human lung cancer cell line NCI-H226. In addition, and because MSLN can be found in blood in a shed soluble form, there is a risk that this circulating MSLN might affect exposure and ultimately potency of our mAb². To confirm that presence of soluble MSLN has minimal impact, additional binding experiments to NCI-H226 cells were performed in the presence of 20 nM soluble MSLN which is 10-20 times the level of soluble MSLN found to be of diagnostic value for defining malignant mesothelioma and lung cancer patients as MSLN positive (Cui et al., 2014). Briefly, NCI-H226 cells (ATCC CRL-5826) were harvested from T175 cell culture flasks using Accutase (Gibco, A11105-01).
(§4) In both cases, cells were centrifuged at 1200 rpm for 3 min and resuspended in ice cold FACS buffer made up of DPBS (Life Technologies, 14190169) and 1% BSA (Sigma-Aldrich, A7906) at 2×10⁶ cells/ml and 50 μl per well was seeded in a 96-well V-bottom plate (Costar, 3894). All antibodies tested were diluted in FACS buffer in 120 μl at a concentration range of 0.01-200 nM (4-fold dilutions). The NCI-H226 cells were then centrifuged, supernatant removed and cells resuspended in 100 μl of each mAb dilution and incubated at 4° C. for 45 min. Cells were washed twice by centrifugation with 150 μl FACS buffer, resuspended in 100 μl containing goat anti-human IgG (γ-chain specific) F(ab')2 fragment-R-Phycoerythrin antibody (Sigma, P8047) diluted 1:1000 in FACS buffer and incubated at 4° C. for 45 min. The cells were washed once with 150 μl FACS buffer and then with 150 μl DPBS, resuspended in 150 μl DPBS containing DAPI (Biotium, 40043) at 1:10.000 and read on the BDCantoII or iQue (Intellicyt).

[4] = target: T3, endogenous cell surface human MSLN; experiment: flow cytometry, NCI-H226 cells + 20 nM soluble MSLN
Method: as §3, §4

[5] = target: T2, hMSLN-His-Avi; experiment: SPR, hMSLN-His-Avi immobilised ~100 RU, mAb2 injected
Method: as §1

[6] = target: T1, cMSLN-His-Avi; experiment: SPR, mAb2 captured on Protein G, cMSLN-His-Avi in solution
Method: as §2

[7] = target: T2, hMSLN-His-Avi; experiment: SPR, mAb2 captured on Protein G, hMSLN-His-Avi in solution
Method: as §2

T3 sequence (Q13421 other isoform, or with tags, fused parts or gaps limits assumed): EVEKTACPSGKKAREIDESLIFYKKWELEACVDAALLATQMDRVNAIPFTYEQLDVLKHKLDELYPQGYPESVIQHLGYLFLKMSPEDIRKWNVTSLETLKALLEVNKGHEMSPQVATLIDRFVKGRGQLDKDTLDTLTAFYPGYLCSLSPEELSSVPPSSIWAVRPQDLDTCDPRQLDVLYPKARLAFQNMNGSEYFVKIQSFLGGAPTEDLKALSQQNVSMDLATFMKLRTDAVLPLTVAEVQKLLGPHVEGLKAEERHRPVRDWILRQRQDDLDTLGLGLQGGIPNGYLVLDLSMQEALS
human CD137 on primary human CD8+ T cells, sequence (Q07011 24-255): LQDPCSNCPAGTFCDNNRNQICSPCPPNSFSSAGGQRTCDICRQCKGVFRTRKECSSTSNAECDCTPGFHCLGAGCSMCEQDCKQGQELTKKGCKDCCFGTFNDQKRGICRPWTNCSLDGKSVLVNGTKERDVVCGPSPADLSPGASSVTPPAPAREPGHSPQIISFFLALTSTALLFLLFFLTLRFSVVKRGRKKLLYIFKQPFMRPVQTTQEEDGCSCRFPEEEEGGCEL
T2 sequence (Q13421 other isoform, or with tags, fused parts or gaps): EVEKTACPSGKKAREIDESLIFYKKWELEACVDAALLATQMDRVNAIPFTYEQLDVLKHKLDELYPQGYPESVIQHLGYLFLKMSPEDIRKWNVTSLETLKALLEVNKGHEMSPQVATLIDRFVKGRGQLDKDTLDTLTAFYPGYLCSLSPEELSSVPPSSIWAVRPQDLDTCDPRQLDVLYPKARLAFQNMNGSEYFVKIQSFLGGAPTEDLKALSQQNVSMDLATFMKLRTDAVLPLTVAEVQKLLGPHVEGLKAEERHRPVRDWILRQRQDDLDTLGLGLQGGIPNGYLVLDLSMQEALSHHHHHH

| KD ratio in solution/immobilised human MSLN [1] | Emax (IL-2 pg/ml), NCI-H226 co-culture, Donor A [2] | Emax (IL-2 pg/ml), NCI-H226 co-culture, Donor B [2] | IL-2 release EC50, NCI-H226 co-culture, Donor A [2] | IL-2 release EC50, NCI-H226 co-culture, Donor B [2] | EC50 [3] | Emax (MFI) [3] | EC50 [4] | Emax (MFI) [4] | Kd [5] | Kd [6] | Kd [7] | Binder |
| --- | --- | --- | --- | --- | --- | --- | --- | --- | --- | --- | --- | --- |
| 259 | 1550 pg/mL | 1100 pg/mL | 1.56 nM | 1.67 nM | 5.7 nM | 516000 MFI | 6.36 nM | 486000 MFI | 3.12 nM | 712 nM | 809 nM | FS22-172-003-AA/FS28-256-012 (bispecific antibody, human IgG1, kappa, L234A L235A, V domains shown, IgG1 mAb^2 with LALA) VH: EVQLLESGGGLVQPGGSLRLSCAASGFTFTHTYMSWVRQAPGKGLEWVSNISPTYSTTNYADSVKGRFTISRDNNKNTLYLQMNSLRAEDTAVYYCARYNAYHAALDYWGQGTLVTVSS VL: EIVLTQSPGTLSLSPGERATLSCRASQSVSSSYLAWYQQKPGQAPRLLIYGASSRATGIPDRFSGSGSGTDFTLTISRLEPEDFAVYYCQQSYYYPITFGQGTKVEIKR |
| 18 | 2120 pg/mL | 1090 pg/mL | 1.29 nM | 0.61 nM | 3.4 nM | 647000 MFI | 5.24 nM | 675000 MFI | 4.74 nM | 57.2 nM | 86.6 nM | FS22-172-003-AA/FS28-256-024 (bispecific antibody, human IgG1, kappa, L234A L235A, V domains shown, IgG1 mAb^2 with LALA) VH: EVQLLESGGGLVQPGGSLRLSCAASGFTFTHTYMSWVRQAPGKGLEWVSNISPTYSTTNYADSVKGRFTISRDNNKNTLYLQMNSLRAEDTAVYYCARYNAYHAALDYWGQGTLVTVSS VL: EIVLTQSPGTLSLSPGERATLSCRASQSVSSSYLAWYQQKPGQAPRLLIYGASSRATGIPDRFSGSGSGTDFTLTISRLEPEDFAVYYCQQALGYPHTFGQGTKVEIKR |
| 18 | 1960 pg/mL | 975 pg/mL | 0.64 nM | 0.23 nM | 1.29 nM | 618000 MFI | 2.13 nM | 625000 MFI | 3.09 nM | 44.2 nM | 56.2 nM | FS22-172-003-AA/FS28-256-023 (bispecific antibody, human IgG1, kappa, L234A L235A, V domains shown, IgG1 mAb^2 with LALA) VH: EVQLLESGGGLVQPGGSLRLSCAASGFTFTQTYMSWVRQAPGKGLEWVSNISPTYSTTNYADSVKGRFTISRDNSKNTLYLQMNSLRAEDTAVYYCARYNAYQIGLDYWGQGTLVTVSS VL: EIVLTQSPGTLSLSPGERATLSCRASQSVSSSYLAWYQQKPGQAPRLLIYGASSRATGIPDRFSGSGSGTDFTLTISRLEPEDFAVYYCQQHNQYPNTFGQGTKVEIKR |
| 9 | 1780 pg/mL | 1000 pg/mL | 0.06 nM | 0.04 nM | 4.02 nM | 689000 MFI | 9.49 nM | 774000 MFI | 2.3 nM | 14.2 nM | 19.6 nM | FS22-172-003-AA/FS28-256-021 (bispecific antibody, human IgG1, kappa, L234A L235A, V domains shown, IgG1 mAb^2 with LALA) VH: EVQLLESGGGLVQPGGSLRLSCAASGFTFTHTYMSWVRQAPGKGLEWVSNISPTYSTTNYADSVKGRFTISRDNNKNTLYLQMNSLRAEDTAVYYCARYNAYHAALDYWGQGTLVTVSS VL: EIVLTQSPGTLSLSPGERATLSCRASQSVSSSYLAWYQQKPGQAPRLLIYGASSRATGIPDRFSGSGSGTDFTLTISRLEPEDFAVYYCQQHNQYPNTFGQGTKVEIKR |
| 18 | 2060 pg/mL | 932 pg/mL | 0.67 nM | 0.23 nM | 1.47 nM | 634000 MFI | 2.68 nM | 688000 MFI | 3.19 nM | 33.1 nM | 57.9 nM | FS22-172-003-AA/FS28-256-026 (bispecific antibody, human IgG1, kappa, L234A L235A, V domains shown, IgG1 mAb^2 with LALA) VH: EVQLLESGGGLVQPGGSLRLSCAASGFTFTQTYMSWVRQAPGKGLEWVSNISPTYSTTNYADSVKGRFTISRDNSKNTLYLQMNSLRAEDTAVYYCARYNAYQIGLDYWGQGTLVTVSS VL: EIVLTQSPGTLSLSPGERATLSCRASQSVSSSYLAWYQQKPGQAPRLLIYGASSRATGIPDRFSGSGSGTDFTLTISRLEPEDFAVYYCQQALGYPHTFGQGTKVEIKR |

— US12319739 (F STAR DELTA, dated 2025)
